{
  "source": "patent EP3460067A1",
  "about": "“PROCESS FOR ENZYMATIC OXIDATION OF LINEAR CARBOHYDRATES” (Technische Universität München, priority 2017, dated 2019)",
  "key": {"[1]": {"target": "T1, SpsADH (Sphingomonas sp. A1, UniProt A0A075B5H4)", "T1 sequence (A0A075B5H4 1-258)": "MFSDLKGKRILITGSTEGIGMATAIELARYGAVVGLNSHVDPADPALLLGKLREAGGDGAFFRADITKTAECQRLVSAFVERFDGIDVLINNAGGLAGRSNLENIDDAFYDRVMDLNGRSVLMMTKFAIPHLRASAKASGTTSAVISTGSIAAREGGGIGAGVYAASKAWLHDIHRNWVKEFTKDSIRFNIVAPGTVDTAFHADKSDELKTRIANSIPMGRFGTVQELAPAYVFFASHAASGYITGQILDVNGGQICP", "assay": "photometric SpsADH enzyme assay, oxidation of substrates (NAD+/NADH at 340 nm)", "assay_type": "biochemical, Sphingomonas species A1", "experimental": "The activity of SpsADH was determined photometrically by monitoring the increase/decrease of NAD^+/NADH at 340 nm using the Infinite 200 pro photometer (Tecan Group Ltd.). Reactions were performed at 25 C in triplicate using 96-well microtiter plates. For determination of the substrate scope, the reaction mixtures contained 50 mM ammonium bicarbonate, pH 7.9, 0.3 mM NADH (or 1 mM NAD^+), a defined alcohol, aldehyde, aldonic acid or uronic acid as substrate and the purified enzyme. One unit of enzyme activity was defined as the amount of protein that reduces (oxidizes) 1 µmol of NAD(H)/min at […]. Calculation of Michaelis-Menten kinetics for determination of Km and vmax was done with Sigma-Plot 11.0 (Systat Software)."}, "[2]": {"substrate": "O=C(O)[C@@H](O)[C@@H](O)[C@H](O)[C@H](O)CO", "assay": "purified protein, by the assay type", "conditions": "other: oxidation of C5/C6 aldonates by SpsADH (Table 3); pH 7.9"}, "[3]": {"substrate": "O=C(O)[C@@H](O)[C@H](O)[C@H](O)[C@H](O)CO", "assay": "purified protein, by the assay type", "conditions": "other: oxidation of C5/C6 aldonates by SpsADH (Table 3); pH 7.9"}, "[4]": {"substrate": "O=C(O)[C@H](O)[C@@H](O)[C@H](O)[C@H](O)CO", "assay": "purified protein, by the assay type", "conditions": "other: oxidation of C5/C6 aldonates by SpsADH (Table 3); pH 7.9"}, "[5]": {"substrate": "O=C(O)[C@H](O)[C@H](O)[C@H](O)[C@H](O)CO", "assay": "purified protein, by the assay type", "conditions": "other: oxidation of C5/C6 aldonates by SpsADH (Table 3); pH 7.9"}, "[6]": {"substrate": "O=C(O)C(=O)C[C@H](O)[C@H](O)CO", "assay": "photometric SpsADH enzyme assay, oxidation of substrates (NAD+/NADH at 340 nm)", "assay_type": "biochemical, Sphingomonas species A1", "conditions": "other: oxidation of KDG by SpsADH, 50 mM ammonium bicarbonate pH 7.9, NAD+, 25 C", "quoted_text": "(§1) The activity of SpsADH was determined photometrically by monitoring the increase/decrease of NAD^+/NADH at 340 nm using the Infinite 200 pro photometer (Tecan Group Ltd.). Reactions were performed at 25 C in triplicate using 96-well microtiter plates. For determination of the substrate scope, the reaction mixtures contained 50 mM ammonium bicarbonate, pH 7.9, 0.3 mM NADH (or 1 mM NAD^+), a defined alcohol, aldehyde, aldonic acid or uronic acid as substrate and the purified enzyme. One unit of enzyme activity was defined as the amount of protein that reduces (oxidizes) 1 µmol of NAD(H)/min at 37 °C. Calculation of Michaelis-Menten kinetics for determination of Km and vmax was done with Sigma-Plot 11.0 (Systat Software)."}, "[7]": {"substrate": "O=C(O)[C@@H](O)[C@H](O)[C@H](O)CO", "assay": "photometric SpsADH enzyme assay, oxidation of substrates (NAD+/NADH at 340 nm)", "assay_type": "biochemical, Sphingomonas species A1", "conditions": "other: oxidation of C5/C6 aldonates by SpsADH (Table 3); pH 7.9", "quoted_text": "as §1"}, "[8]": {"substrate": "O=C(O)[C@H](O)[C@H](O)[C@H](O)CO", "assay": "photometric SpsADH enzyme assay, oxidation of substrates (NAD+/NADH at 340 nm)", "assay_type": "biochemical, Sphingomonas species A1", "conditions": "other: oxidation of C5/C6 aldonates by SpsADH (Table 3); pH 7.9", "quoted_text": "as §1"}},
  "data": [
    {"molecule": "OC[C@@H](O)[C@@H](O)[C@H](O)[C@@H](O)CO", "note": "[D-sorbitol]", "values": [
      {"measurement": "activity", "setting": "[1]; oxidation by SpsADH, polyol", "value": 1.7, "unit": "mU/mg"},
      {"measurement": "vmax", "setting": "[1]; oxidation of D-sorbitol to L-gulose by SpsADH", "value": "6.2 ± 0.1", "unit": "mU/mg"}
    ]},
    {"molecule": "O=C(O)C(=O)C[C@H](O)[C@H](O)CO", "note": "[KDG, 2-keto-3-deoxy-D-gluconate]", "values": [
      {"measurement": "oxidative activity", "setting": "[1]; native substrate KDG, result in words", "value": "very low oxidative activity"}
    ]},
    {"molecule": "SpsADH (Sphingomonas sp. A1) (protein) MFSDLKGKRILITGSTEGIGMATAIELARYGAVVGLNSHVDPADPALLLGKLREAGGDGAFFRADITKTAECQRLVSAFVERFDGIDVLINNAGGLAGRSNLENIDDAFYDRVMDLNGRSVLMMTKFAIPHLRASAKASGTTSAVISTGSIAAREGGGIGAGVYAASKAWLHDIHRNWVKEFTKDSIRFNIVAPGTVDTAFHADKSDELKTRIANSIPMGRFGTVQELAPAYVFFASHAASGYITGQILDVNGGQICP", "values": [
      {"measurement": "Km", "setting": "[2]", "value": "18.3 ± 1.3", "unit": "mM"},
      {"measurement": "Vmax", "setting": "[2]", "value": "0.52 ± 0.01", "unit": "U/mg"},
      {"measurement": "kcat", "setting": "[2]", "value": "0.26 ± 0.00", "unit": "s⁻¹"},
      {"measurement": "kcat/Km", "setting": "[2]", "value": "13.9 ± 1.2", "unit": "M⁻¹ s⁻¹"},
      {"measurement": "Km", "setting": "[3]", "value": "27.0 ± 4.2", "unit": "mM"},
      {"measurement": "Vmax", "setting": "[3]", "value": "0.32 ± 0.01", "unit": "U/mg"},
      {"measurement": "kcat", "setting": "[3]", "value": "0.16 ± 0.01", "unit": "s⁻¹"},
      {"measurement": "kcat/Km", "setting": "[3]", "value": "5.8 ± 1.2", "unit": "M⁻¹ s⁻¹"},
      {"measurement": "Km", "setting": "[4]", "value": "15.7 ± 1.6", "unit": "mM"},
      {"measurement": "Vmax", "setting": "[4]", "value": "1.28 ± 0.04", "unit": "U/mg"},
      {"measurement": "kcat", "setting": "[4]", "value": "0.63 ± 0.02", "unit": "s⁻¹"},
      {"measurement": "kcat/Km", "setting": "[4]", "value": "40.0 ± 5.4", "unit": "M⁻¹ s⁻¹"},
      {"measurement": "Km", "setting": "[5]", "value": "17.1 ± 2.4", "unit": "mM"},
      {"measurement": "Vmax", "setting": "[5]", "value": "0.28 ± 0.01", "unit": "U/mg"},
      {"measurement": "kcat", "setting": "[5]", "value": "0.14 ± 0.01", "unit": "s⁻¹"},
      {"measurement": "kcat/Km", "setting": "[5]", "value": "8.1 ± 1.4", "unit": "M⁻¹ s⁻¹"},
      {"measurement": "Km", "setting": "[6]", "value": "20.9 ± 3.16", "unit": "mM"},
      {"measurement": "Vmax", "setting": "[6]", "value": "1.81 ± 0.009", "unit": "U/mg"},
      {"measurement": "kcat", "setting": "[6]", "value": "0.89 ± 0.047", "unit": "s⁻¹"},
      {"measurement": "kcat/Km", "setting": "[6]", "value": "42.5 ± 8.68", "unit": "M⁻¹ s⁻¹"},
      {"measurement": "Km", "setting": "[7]", "value": "25.6 ± 2.6", "unit": "mM"},
      {"measurement": "Vmax", "setting": "[7]", "value": "0.01 ± 0.00", "unit": "U/mg"},
      {"measurement": "kcat", "setting": "[7]", "value": "0.01 ± 0.00", "unit": "s⁻¹"},
      {"measurement": "kcat/Km", "setting": "[7]", "value": "0.2 ± 0.0", "unit": "M⁻¹ s⁻¹"},
      {"measurement": "Km", "setting": "[8]", "value": "16.9 ± 1.4", "unit": "mM"},
      {"measurement": "Vmax", "setting": "[8]", "value": "0.01 ± 0.00", "unit": "U/mg"},
      {"measurement": "kcat", "setting": "[8]", "value": "0.01 ± 0.00", "unit": "s⁻¹"},
      {"measurement": "kcat/Km", "setting": "[8]", "value": "0.3 ± 0.1", "unit": "M⁻¹ s⁻¹"}
    ]}
  ]
}
